Data published in patent US20140046032A1 (Sanofi, published 2014).
Numbering of substitutions follows the chain as printed. Numbers in names are those of the source.

T1: recombinant murine FcγRI (murine, UniProt P26151 25-297)
T1 construct: Bought
T1 sequence (looked up): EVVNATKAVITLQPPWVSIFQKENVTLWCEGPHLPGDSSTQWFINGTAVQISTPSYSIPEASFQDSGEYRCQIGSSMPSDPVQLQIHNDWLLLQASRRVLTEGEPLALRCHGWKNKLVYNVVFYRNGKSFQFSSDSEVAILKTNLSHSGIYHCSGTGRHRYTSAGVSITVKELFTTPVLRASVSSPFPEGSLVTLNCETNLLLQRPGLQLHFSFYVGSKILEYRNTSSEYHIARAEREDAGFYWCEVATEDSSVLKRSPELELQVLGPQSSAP

T2: recombinant murine FcγRIV (murine, UniProt A0A0B4J1G0 21-203)
T2 construct: Bought
T2 sequence: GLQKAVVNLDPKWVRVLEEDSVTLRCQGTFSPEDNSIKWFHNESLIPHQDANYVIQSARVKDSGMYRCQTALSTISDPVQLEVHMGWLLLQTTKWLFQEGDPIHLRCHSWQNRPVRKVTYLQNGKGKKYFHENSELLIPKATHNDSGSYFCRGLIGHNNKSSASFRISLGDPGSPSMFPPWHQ

T3: recombinant murine FcγRIIb (murine, UniProt P08101 30-207, limits assumed)
T3 construct: Bought
T3 sequence (looked up): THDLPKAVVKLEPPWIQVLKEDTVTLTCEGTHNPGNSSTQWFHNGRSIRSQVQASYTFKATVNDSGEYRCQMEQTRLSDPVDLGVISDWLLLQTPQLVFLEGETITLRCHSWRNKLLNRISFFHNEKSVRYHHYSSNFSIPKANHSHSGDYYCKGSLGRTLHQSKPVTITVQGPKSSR

T4: recombinant murine FcγRIII (murine, UniProt P08508 31-215)
T4 construct: Bought
T4 sequence (looked up): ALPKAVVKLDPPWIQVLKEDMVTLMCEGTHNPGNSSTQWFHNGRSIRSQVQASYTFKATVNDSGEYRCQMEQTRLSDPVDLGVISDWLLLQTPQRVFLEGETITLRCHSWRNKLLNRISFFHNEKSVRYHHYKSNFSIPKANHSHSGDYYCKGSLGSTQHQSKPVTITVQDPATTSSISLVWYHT

B1: α-2,6 sialylated antiAbeta-13C3_D257A mAb (co-expressed with SIAT1 and B4GT1) (antibody, mouse IgG1, kappa)
heavy: QVQLQQSGPELVRPGVSVKISCKGSGYTFTDYAMHWVKQSHAKSLEWIGVISTKYGKTNYNQKFKGKATMTVDKSSSTAYMELARLTSEDSAIYYCARGDDGYSWGQGTSVTVSSAKTTPPSVYPLAPGSAAQTNSMVTLGCLVKGYFPEPVTVTWNSGSLSSGVHTFPAVLQSDLYTLSSSVTVPSSTWPSETVTCNVAHPASSTKVDKKIVPRDCGCKPCICTVPEVSSVFIFPPKPKDVLTITLTPKVTCVVVAISKDDPEVQFSWFVDDVEVHTAQTQPREEQFNSTFRSVSELPIMHQDWLNGKEFKCRVNSAAFPAPIEKTISKTKGRPKAPQVYTIPPPKEQMAKDKVSLTCMITDFFPEDITVEWQWNGQPAENYKNTQPIMDTDGSYFVYSKLNVQKSNWEAGNTFTCSVLHEGLHNHHTEKSLSHSPG
light: DVVMTQTPLSLPVSLGDQASISCRSGQSLVHSNGNTYLHWYLQKPGQSPKLLIYTVSNRFSGVPDRFSGSGSGSDFTLKISRVEAEDLGVYFCSQNTFVPWTFGGGTKLEIKRADAAPTVSIFPPSSEQLTSGGASVVCFLNNFYPKDINVKWKIDGSERQNGVLNSWTDQDSKDSTYSMSSTLTLTKDEYERHNSYTCEATHKTSTSPIVKSFNRNEC
modifications: Fc N-glycan essentially α-2,6-sialylated, G2F/G2F + 4 NeuNAc per mAb (very high sialic acid content)
notes: Small-scale batch LP10094, large-scale batch LP10104 and a CHO-produced batch are treated as this one molecule; also called antiAbeta_13C3_D257A batch LP10104; batch LP10094
B2: antiAbeta_13C3 mAb (murine, batch LP09009, low sialic acid content) (antibody, mouse IgG1, kappa)
heavy: B1 heavy with A257D
light: B1 light
modifications: Fc N-glycan with low sialic acid content
notes: Murine IgG1 heavy chain, murine Ckappa light chain; also called antiAbeta-13C13 mAb; original antiAbeta-13C3
B3: antiAbeta_13C3_D257A mAb produced without co-expression of SIAT1 and B4GT1 (batch LP10116, low sialic acid content) (antibody, mouse IgG1, kappa)
heavy: B1 heavy
light: B1 light
modifications: Fc N-glycan G0F/G0F, low sialic acid content
notes: also called low sialylated antiAbeta-13C3_D257A

How the values were obtained:
[1] = target: lectin Maackia amurensis (MAA) (Maackia amurensis); assay: enzyme-linked lectin assay (ELLA) with Maackia amurensis lectin (MAA, α-2,3 sialic acid); signal against µg of mAb, linear axis
recombinant murine FcγRI = target: T1, recombinant murine FcγRI; assay: SPR, Biacore 3000
[2] = target: T2, recombinant murine FcγRIV; assay: SPR, Biacore 3000
[3] = target: T3, recombinant murine FcγRIIb; assay: SPR, Biacore 3000
[4] = target: T4, recombinant murine FcγRIII; assay: SPR, Biacore 3000

lectin Maackia amurensis (MAA) (Maackia amurensis), sequence (P0DKL3 30-278): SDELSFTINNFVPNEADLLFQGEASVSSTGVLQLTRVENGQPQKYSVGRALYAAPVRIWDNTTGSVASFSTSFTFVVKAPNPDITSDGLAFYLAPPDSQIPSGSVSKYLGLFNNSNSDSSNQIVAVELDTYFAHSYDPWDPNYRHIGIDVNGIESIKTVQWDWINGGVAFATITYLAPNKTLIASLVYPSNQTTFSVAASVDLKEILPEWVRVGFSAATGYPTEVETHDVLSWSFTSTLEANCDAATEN

| Molecule | EC50 (read off the curve) [1] | binding result (recombinant murine FcγRI) | binding result [2] | Kd [3] | Kd [4] |
| --- | --- | --- | --- | --- | --- |
| fetuin | 0.2 µg | – | – | – | – |
| B1 | – | no binding | no binding | – | – |
| B2 | – | no binding | no binding | 354 nM | 471 nM |
| B3 | – | no binding | no binding | – | – |
